Results reported in article PMC3170884 (Frontiers in Physiology, 2011).

B1: mouse TWSG1 (mTWSG1) from E. coli, non-glycosylated (natural protein, UniProt Q9EP52 25-222, looked up)
chain: CNKALCASDVSKCLIQELCQCRPGEGNCPCCKECMLCLGALWDECCDCVGMCNPRNYSDTPPTSKSTVEELHEPIPSLFRALTEGDTQLNWNIVSFPVAEELSHHENLVSFLETVNQLHHQNVSVPSNNVHAPFPSDKERMCTVVYFDDCMSIHQCKISCESMGASKYRWFHNACCECIGPECIDYGSKTVKCMNCMF

Tests used:
[1] = molecular target: recombinant human BMP2 derived from E. coli expression (human) (UniProt P12643); experiment: SPR
Chain of recombinant human BMP2 derived from E. coli expression (human) (P12643 283-396): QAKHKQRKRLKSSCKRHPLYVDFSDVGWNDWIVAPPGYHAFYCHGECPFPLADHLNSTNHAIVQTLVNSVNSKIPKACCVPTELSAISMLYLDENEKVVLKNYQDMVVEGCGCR

[2] = molecular target: recombinant human BMP2 derived from E. coli expression (human, UniProt P12643 283-396); experiment: SPR
Chain of recombinant human BMP2 derived from E. coli expression (P12643 283-396): as above

Kd [1]	koff [1]	kon [1]	KD of the low affinity interaction of the biphasic binding [2]	KD of the slow (high affinity) interaction of the biphasic binding [2]	Molecule
20.2 nM	0.00071 s⁻¹	38000 M⁻¹ s⁻¹			Xenopus Tsg (xTsg) from E. coli, non-glycosylated (natural protein)
2.5 nM	0.0002 s⁻¹	110000 M⁻¹ s⁻¹			Xenopus Tsg (xTsg) from insect cells, glycosylated (natural protein)
			301 nM	39.6 nM	B1
